Results published in patent publication US20140328838A1 (NVIP, published 2014).

B1: caninised anti-huTNF MAb 148 (antibody, V domains shown)
VH: EVQLVESGGGVVQPGGSLRLSCAASGFIFSSYAMRWVRQAPGKGLEWVAFMSYDGSNKKYADSVKGRFTISRDNSKNTLYLQMNSLRAEDTAVYYCARDRGIAAGGNYYYYGMDVWGQGTSVTVSS
VL: EIVMTQSPASLSLSPGEKATISCRASQSVYSYLAWYQQKPGQAPRLLIYDASNRATGVPSRFSGSGSGTDFTLTISSLEPEDVAVYYCQQPSNWPPFTFGPGTKVDIKR
notes: Expressed in CHO cells and purified by Protein A chromatography
B2: caninised anti-TNF monoclonal antibody based on D2E7 (ca-HCB+ca-kLC) (antibody, V domains shown)
VH: not shown
VL: DIVMTQSPASLSLSQEEKVTITCRASQGIRNYLAWYQQKPGQAPKLLIYAASTLQSGVPSRFSGSGSGTDFTLTISSLEPEDVAVYYCQRYNRAPYTFGQGTKVEIKR
notes: also called caninised (Ca) D2E7 based MAb; canine PETised D2E7

Assays:
human TNF = biological target: T1, human TNF (human, UniProt P01375 77-233); assay: ELISA (FIG. 16 panel B)
T1 construct: also called huTNF

canine TNF alpha [1] = biological target: T2, canine TNF alpha (canine, UniProt P51742 77-233); assay: ELISA (FIG. 16 panel C)
T2 construct: Coated at 5 ug/ml in the ELISA; Used at 1 ng/mL in the reporter assay

canine TNF alpha [2] = biological target: T2, canine TNF alpha; assay: ELISA, canine TNF alpha coated; antibody 5 to 0.05 µg/ml (FIG. 14B)

T1 sequence (P01375 77-233 limits assumed): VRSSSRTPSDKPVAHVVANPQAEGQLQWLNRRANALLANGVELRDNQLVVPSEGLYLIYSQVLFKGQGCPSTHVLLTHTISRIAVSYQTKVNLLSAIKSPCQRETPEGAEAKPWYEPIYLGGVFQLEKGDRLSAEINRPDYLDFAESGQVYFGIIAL
T2 sequence (P51742 77-233 limits assumed): as the sequence (P01375 77-233 limits assumed) above, with R2K, Q21E, N30S, R44T, V49I, E53D, I83F, A109T, R138L, D140N counted along it

Binder | binding result (human TNF) | binding result (canine TNF alpha [1]) | binding result (canine TNF alpha [2])
B1 | binds | no binding | –
B2 | binds | – | binds
